# Numbering of substitutions follows the chain as printed.
# T1: canine IL-31 (dog)
# T1 chain: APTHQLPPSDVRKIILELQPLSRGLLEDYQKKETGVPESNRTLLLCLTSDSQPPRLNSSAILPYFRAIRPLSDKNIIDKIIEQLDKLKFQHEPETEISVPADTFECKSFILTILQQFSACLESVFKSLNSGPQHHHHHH
# B1: Caninized 35C9-1-H1L2 (antibody, V domains shown)
# VH: EVQLVESGGDLVKPGGSLRLSCVASGFTFSSYWMSWVRQAPGKGLQWLSDIYATGSTYYANWATGRFTGSRDNAKNTLYLQMNSLTIEDTATYFCARHSSRSGIDFDLWGQGTLVTVSS
# VL: EIVMTQSPASLSLSQEEKVTITCQASQSIGNYLAWYQQKPGQAPKQLIYRASTLASGVPSRFSGSGSGTDFTLTISDLECADVAVYYCQQGYDSNNVDNFFGQGTKVEIKR
# B2: Caninized 35C9-1-H1L1 (antibody, V domains shown)
# VH: B1 VH
# VL: B1 VL with S63K, D70E
# B3: Chimeric Antibody 47C1-1 (antibody, V domains shown)
# VH: QSVEESGGRLVTPGTPLTLTCTVSGFSLSTYAMNWVRQAPGKGLEWIGIIYSNGDGYYASWAKGRYTISKTSSTTVDLKVTSPTTEDTATYFCARGIYSQTTGYFNLWGQGTLVTVSS
# VL: DIVMTQTPASVEAAVGGIVIIKCQASESIGNTLAWYQQKPGQPPKLLIYGASTLASGVSSRFKGSGSGTEVTLTISDLECADAATYYCQSYWSSTTTFRDTFGGGTEVVVKR
# B4: 47C1-1 rabbit-derived (antibody, V domains shown)
# VH: B3 VH
# VL: DIVMTQTPASVEAAVGGIVIIKCQASESIGNTLAWYQQKPGQPPKLLIYGASTLASGVSSRFKGSGSGTEVTLTISDLECADAATYYCQSYWSSTTTFRDTFGGGTEVVVK
# B5: 38E2-1 rabbit-derived (antibody, V domains shown)
# VH: QSLEESGGRLVTPGTPLTLTCTASAFSLSGYYMGWVRQAPGKGLEYIGIIGGSSNTFYASWAKGRFTISKTPTTVDLKITSPTTEDTATYFCARHGDTDYISGTYFDLWGQGTLVTVSS
# VL: AYHMTQTPASVEVPVGGTVTIKCQASQSISIYLAWYQQKPGQPPKLLIYRASTLASGVPSRFIGSGSGTEFSLTISDLECADAATYYCQQGYEDSNVESLFGGGTEVVVK
# B6: Chimeric Antibody 38E2-1 (antibody, V domains shown)
# VH: B5 VH
# VL: AYHMTQTPASVEVPVGGTVTIKCQASQSISIYLAWYQQKPGQPPKLLIYRASTLASGVPSRFIGSGSGTEFSLTISDLECADAATYYCQQGYEDSNVESLFGGGTEVVVKR
# B7: Chimeric Antibody 35C9-1 (antibody, V domains shown)
# VH: QSLEESGGRLVTPGTPLTLTCTASGFSLSSYWMSWVRQAPGKGLEWIGDIYATGSTYYANWATGRFTGSKTSTTVDLTITSPTIEDTATYFCARHSSRSGIDFDLWGQGTLVTVSS
# VL: AYDMTQTPASVEAAVGGTVTIKCQASQSIGNYLAWYQQKPGQPPKQLIYRASTLASGVPSRFKGSGSGTEFTLTISDLECADGATYYCQQGYDSNNVDNFFGGGTEVVVRR
# B8: 35C9-1 rabbit-derived (antibody, V domains shown)
# VH: B7 VH
# VL: AYDMTQTPASVEAAVGGTVTIKCQASQSIGNYLAWYQQKPGQPPKQLIYRASTLASGVPSRFKGSGSGTEFTLTISDLECADGATYYCQQGYDSNNVDNFFGGGTEVVVR
# B9: Caninized 47C1-1-H3L3 (antibody, V domains shown)
# VH: EVQLVESGGDLVKPGGSLRLSCVASGFSLSTYAMNWVRQAPGKGLEWISIIYSNGDGYYASWAKGRFTISRDNSKNTLYLQMNSLRAEDTAVYYCARGIYSQTTGYFNLWGQGTLVTVSS
# VL: MDTRAPTQLLGLLLLWLPGARCEIVMTQTPASLSLSQEGKVTITCQASESIGNTLAWYQQKPGQPPKLLIYGASTLASGVPSRFSGSGSGTDFTFTINSLQPEDVATYYCQSYWSSTTTFRDTFGQGTKVEIKR
# B10: Caninized 47C1-1-H2L2 (antibody, V domains shown)
# VH: B9 VH with S74A
# VL: B9 VL
# B11: Caninized 38E2-1-H3L3 (antibody, V domains shown)
# VH: EVQLVESGGDLVKPGGSLRLSCVASAFSLSGYYMGWVRQAPGKGLEWISIIGGSSNTFYASWAKGRFTISKDNSKNTLYLQMNSLRAEDTAVYFCARHGDTDYISGTYFDLWGQGTLVTVSS
# VL: EIVMTQSPASLSLSQGEKVTITCQASQSISIYLAWYQQKPGQPPKLLIYRASTLASGVPSRFSGSGSGTDFSFTITSLQPEDVATYYCQQGYEDSNVESLFGQGTKVEIKR
# B12: Caninized 38E2-1-H3L2 (antibody, V domains shown)
# VH: B11 VH
# VL: B11 VL with T76S
# B13: 5H4-2 rabbit-derived (antibody, V domains shown)
# VH: QSLEESGGDLVKPGASLTLTCTASGFTLSSDYYMCWVRQAPGKGLELIACITTSTVGTWYASWAKGRFTISKTSSTTVTLQMTSLTAADTATYFCGREDGTYADYFNLWGPGTLVTVSS
# VL: AYDMTQTPASVEVAVGGTVTIKCQASQSISSWLAWYQQKPGQRPKLLIYRASTLASGVSSRFKGSGSGTQFTLTISGVECADAATYYCQQGYRSSNLDNAFGGGTEVVVK
# B14: 19D1-1 rabbit-derived (antibody, V domains shown)
# VH: B7 VH with T53S, T56E, N60S, A62V, T63N, T78K
# VL: B8 VL with G30S, I75M, G83A, F100L, R110K
# B15: 30A11-1 rabbit-derived (antibody, V domains shown)
# VH: QEQLKESGGGLVTPGGTLTLTCTASGFTISGYYMNWVRQAPGKGLEWIGFIYSPSTTYYANWAKGRFTISKTSTTVDLKITSPTTEDTATYFCARGHTTEIRLDLWGQGTLVTVSS
# VL: AVLTQTPSPVSAAVGGTVSISCQSSESVYKNNRLSWFQQKPGQPPKLLIFDASTLASGVSSRFKGSGSGTQFTLTISGVQCDDAATYYCLGEFRDSSDNSFGGGTEVVVK
# B16: 18E8-1 rabbit-derived (antibody, V domains shown)
# VH: B5 VH
# VL: B5 VL with R50K
# B17: 30G5-1 rabbit-derived (antibody, V domains shown)
# VH: QSLEESGGRLVTPGGSLTLTCTVSGFSLSSYAMIWVRQAPGEGLEWIGTIDPSDNTDYASWAKGRFTISKTSSTTVDLKLTSLTTEDTATYFCASHSYDDYGRDVWNLWGQGTLVTVSS
# VL: IVMTQTPSSKSVPVGDTVTINCQASQSVDNNNDLSWYQQKPGQPPKLLIYYTSSLPSGVPSRFKGSGSGTQFTLTISDLECDDAATYYCVGYKSSTTDATAFGGGTEVMVK
# B18: 19C7-1 rabbit-derived (antibody, V domains shown)
# VH: QSVEESGGRLVTPGTPLTLTCTVSGFSLNSYAMGWVRQAPGKGLEYIGIINSSGSTWYATWVKGRFTISKTSTTVDLKMTSVTTEDTATYFCARNRDPFYITDMDLWGQGTLVTVSS
# VL: QVLTQTPSSVSAAVGGTVTINCQASQNIYSYLSWYQQKPGQPPKLLIYRASTLASGVPSRFKGSGSGTEFTLTISGVECADAATYYCQQGDSYSDVDNIFGGGTEVVVK
# B19: 44B4-1 rabbit-derived (antibody, V domains shown)
# VH: QSLEESGGRLVTPGTPLTLTCTASGFSLSNSYMGWVRQAPGKGLEYIGFIDTGGTTYYASWAKGRFTISRTSTTVDLKMTSPTTEDTATYFCAKGPDDYFFNLWGQGTLVTVSS
# VL: DIVMTQTPASVEAAVGGTITINCQASESISSWLAWYQQKPGQPPKLLIYKASTLESGVPSRFKGSGSGTEFTLTISGVQCADAATYYCQVYYFSYNSYNFFGGGTEVVVK
# Target: T1, canine IL-31
# Assay: BLI
row,Kd,Binder
1,389 nM,B1
2,495 nM,B2
3,8.32 nM,B3
4,3.75 nM,B4
5,0.815 nM,B5
6,2.49 nM,B6
7,11.9 nM,B7
8,12.7 nM,B8
9,15.5 nM,B9
10,15.1 nM,B10
11,5.35 nM,B11
12,8.04 nM,B12

# Target: T1, canine IL-31
# Assay: BLI
# Remark: another data set of the same source
row,Kd,Binder
1,8.32 nM,B3
2,3.75 nM,B4
3,0.815 nM,B5
4,2.49 nM,B6
5,11.9 nM,B7
6,12.7 nM,B8

# Target: T1, canine IL-31
# Assay: BLI
# Remark: another data set of the same source
row,Kd,Binder
1,113 nM,B13
2,3.75 nM,B4
3,2.55 nM,B5
4,12.7 nM,B8
5,43.3 nM,B14

# Target: T1, canine IL-31
# Assay: ELISA
row,EC50,Binder
1,0.158 µg/mL,B1
2,0.19 µg/mL,B2
3,0.102 µg/mL,B3
4,0.0928 µg/mL,B6
5,0.103 µg/mL,B7
6,0.105 µg/mL,B9
7,0.113 µg/mL,B10
8,0.0934 µg/mL,B11
9,0.0978 µg/mL,B12

# Target: T1, canine IL-31
# Assay: ELISA
# Remark: another data set of the same source
row,EC50,Binder
1,0.00282 µg/mL,B15
2,0.000841 µg/mL,B13
3,0.00179 µg/mL,B4
4,0.000915 µg/mL,B5
5,0.00195 µg/mL,B16
6,0.00208 µg/mL,B17
7,0.00321 µg/mL,B18
8,0.0023 µg/mL,B8
9,0.000196 µg/mL,B14
10,0.000232 µg/mL,B19

# Target: T1, canine IL-31
# Assay: ELISA
# Remark: another data set of the same source
row,EC50,Binder
1,0.0985 µg/mL,B3
2,0.094 µg/mL,B6
3,0.105 µg/mL,B7
